Laboratory results reported in US12612650B2, “Methods for improved homologous recombination and compositions thereof” (LIFE TECHNOLOGIES CORPORATION, priority 2017, dated 2026).
Several values for one entry are separate records, joined by “and”; a condition that tells them apart may be missing. Equal values may be shown once. Marks after values point to notes of the source that are not given here.

B1: puromycin-P2A-OFP: donor DNA, 1.4 kb: promoterless puromycin-P2A-OFP fragment with 35 nt homology arms to the beta-actin locus (nucleic acid)
DNA: CACAGCGCGCCCGGCTATTCTCGCAGCTCACCATGACCGAGTACAAGCCCACAGTGCGGCTGGCCACCAGGGACGATGTGCCTAGAGCTGTGCGGACACTGGCCGCTGCCTTCGCCGATTACCCTGCCACCAGACACACCGTGGACCCCGACAGACACATCGAGAGAGTGACCGAGCTGCAGGAACTGTTTCTGACCAGAGTGGGCCTGGACATCGGCAAAGTGTGGGTGGCCGATGATGGCGCCGCTGTGGCTGTGTGGACAACCCCTGAGTCTGTGGAAGCCGGCGCTGTGTTCGCCGAGATCGGACCTAGAATGGCCGAGCTGAGCGGCTCTAGACTGGCTGCCCAGCAGCAGATGGAAGGCCTGCTGGCCCCCCACAGACCTAAAGAGCCTGCCTGGTTTCTGGCCACCGTGGGCGTGTCACCTGACCACCAGGGCAAGGGACTGGGATCTGCTGTGGTGCTGCCTGGCGTGGAAGCTGCTGAAAGGGCTGGCGTGCCCGCCTTCCTGGAAACAAGCGCCCCCAGAAACCTGCCCTTCTACGAGAGACTGGGCTTCACCGTGACCGCCGACGTGGAAGTGCCTGAGGGCCCTAGAACCTGGTGCATGACCAGAAAGCCTGGCGCCGGAAGCGGAGCTACTAACTTCAGCCTGCTGAAGCAGGCTGGAGACGTGGAGGAGAACCCTGGACCTAACCTGAGCAAAAACGTGAGCGTGAGCGTGTATATGAAGGGGAACGTCAACAATCATGAGTTTGAGTACGACGGGGAAGGTGGTGGTGATCCTTATACAGGTAAATATTCCATGAAGATGACGCTACGTGGTCAAAATTCCCTACCCTTTTCCTATGATATCATTACCACGGCATTTCAGTATGGTTTCCGCGTATTTACAAAATACCCTGAGGGAATTGTTGACTATTTTAAGGATTCGCTTCCCGACGCATTCCAGTGGAACAGACGAATTGTGTTTGAAGATGGTGGAGTACTAAACATGAGCAGTGATATCACATATAAAGATAATGTTCTGCATGGTGACGTCAAGGCTGAGGGAGTGAACTTCCCGCCGAATGGGCCAGTGATGAAGAATGAAATTGTGATGGAGGAACCGACTGAAGAAACATTTACTCCAAAAAACGGGGTTCTTGTTGGCTTTTGTCCCAAAGCGTACTTACTTAAAGATGGTTCCTATTACTATGGAAATATGACAACATTTTACAGATCCAAGAAATCTGGCCAGGCACCTCCTGGGTATCACTTTGTTAAGCATCGTCTCGTCAAGACCAATGTGGGACATGGATTTAAGACGGTTGAGCAGACTGAATATGCCACTGCTCATGTCAGTGATCTTCCCAAATTCGAAGCTGATGATGATATCGCCGCGCTCGTCGTCGACAACGG
modifications: misc_feature 1..1402 Description of Unknown: Beta Actin sequence
notes: donor DNA, 1.4 kb: promoterless puromycin-P2A-OFP fragment with 35 nt homology arms to the beta-actin locus

How the values were obtained:
Type in all cases: cell-based, human
LRRK2 genomic locus = assay: Junction PCR and sequencing of clonal A549 cells, N-terminal tagging of LRRK2
Experimental: (§1) 293FT or A549 cells were maintained in DMEM medium supplemented with 10% FBS. On the day of transfection, cells were detached from the culture flask and counted. For each electroporation, 1.5 μg of Cas9 protein and 360 ng of gRNA were added to Resuspension Buffer R to a final volume of 7 μl, but the total volume of Cas9 protein plus gRNA added was less than 1 μl. Upon mixing, the sample was incubated at room temperature for 5 to 10 minutes to form Cas9 RNPs complex. Meanwhile, aliquots of 1×10^6 cells were washed once with DPBS without Ca^2+ and Mg^2+ and the cell pellets were resuspended in 50 μl of Resuspension Buffer R. A 5 μl aliquot of cell suspension was then mixed with 7 μl of Cas9 RNPs, followed by addition of 1 μl indicated amount of donor DNA. 10 μl of cell suspension containing Cas9 RNP and donor was applied to NEON® electroporation (Thermo Fisher Scientific, cat. no. MPK5000) with voltage set at 1150V, pulse width set at 20 ms, and the number of pulses set at 2, respectively. The electroporated cells were transferred to a 48-well plate containing 0.5 ml culture media. Samples without either gRNA or donor DNA served as controls. At 48 hours post transfection, the cells were analyzed by flow cytometry. Alternatively, the genomic loci were PCR-amplified with the corresponding primers. The resulting PCR fragments were analyzed using the GENEART® Genomic Cleavage Detection assay. The edited cells were further subjected to limiting dilution, followed by clonal cell isolation. The clonal cells were characterized by PCR amplification of both the N- and C-terminal junctions and sequencing. The sequencing data were analyzed using VECTOR NTI ADVANCE® 11.5 software (Thermo Fisher Scientific).
Besides beta-actin, we also evaluated a different protein in a different cell line. LRRK2 protein is related to Parkinson's disease with a molecular weight of approximately 280 kd. A gRNA was designed to target the LRRK2 genomic locus near the start codon. Approximately 35 nt homology arms were added to a sequence-verified promoterless puromycin-P2A-EmGFP DNA fragment via PCR amplification. The Cas9 RNP and donor DNA were co-delivered into A549 cells via NEON® electroporation using 1050 volts, 30 milliseconds and 2 pulses. Because LRRK2 is relatively low abundant protein, we were not able to detect EmGFP signal inside the cells. […] To examine the integration efficiency, the cells were treated with 0.75 μg/ml puromycin for 7 days at 48 hours post transfection, followed by limiting dilution and clonal cell isolation. The junctions were analyzed by PCR using one inner primer and one outer primer, or a pair of outer primers. The resulting PCR products were analyzed by sequencing to determine the precision of integration. […]

beta-actin locus = assay: Junction PCR and sequencing of clonal 293FT cells, integration at beta-actin locus
Experimental: as §1
To examine the identity of integration sites, cells transfected with Cas9 RNP and donor DNA were subjected to puromycin selection, limiting dilution, and clonal cell isolation. A total of 48 colonies were randomly picked for junction PCR analysis. […] All the other 47 colonies gave rise to PCR products for both N- and C-terminal junctions when one outer primer and one inner primer were used. The PCR product was also observed when a pair of outer primers was used with the size of about 420 bp, which corresponded to the genomic DNA fragment without an insert. The reason why a large PCR product containing the insert was not observed was because the smaller DNA fragment without the insert was preferentially amplified. […] The other 18% of clonal cells also contained the insert but had mutations at the junction areas (FIG. 3A(2)). Most of the mutations were deletion and insertion. Sometimes a duplicate sequence of a partial or full-length homology arm was inserted at the junction. At the C-terminal junction, approximately 78% of the clonal cells harbored precise HDR (FIG. 3B(1)) whereas the other 22% of cells had Indel formation at the junction (FIG. 3B(2)). Rarely, a relatively large piece of donor DNA (up to 165 nt) was deleted at the C-terminal junction. Overall, all the clonal cells contained one copy of donor DNA at the right genomic locus in one of the alleles with 68% of cells harbored precise HDR at both N- and C-termini and 32% of cells harbored imperfect HDR at either N- or C-terminus or both. […] Instead, approximately 80% of the clones had one “A” insertion at the Cas9 cleavage site and 20% of the clones harbored more than 2 nt deletion. Only one wild type clone was detected at the second allele (FIG. 3C). Most of the clones expressed both wild type beta-actin and OFP fusion of beta-actin as confirmed by Western Blot analysis.
To characterize each clonal cell in the stable pool, we performed limiting dilution and clonal cell isolation. The junctions of integration were analyzed by PCR and sequencing. As depicted in FIGS. 8B and 8C, approximately 88% of clonal cells harbored precise integration at N-terminal junction whereas 12% of clonal cells had some extra sequences inserted at the junction. […]

[1] = test system: genomic locus of beta-actin; assay: OFP-positive cells by flow cytometry after electroporation of Cas9 RNP and donor DNA into 293FT cells
Experimental: as §1
To evaluate the strategy of tagging endogenous protein, we fused the OFP gene to the N-terminus of beta-actin. Beta-actin is one of the most abundant proteins in eukaryotes, so it is easy to monitor using fluorescence microscopy. A gRNA was designed and synthesized to target the genomic locus of beta-actin near the ATG start codon (Table 12) and then complexed with Cas9 nuclease to form RNPs. The relevant 35 nt homology arms were added to a sequence-verified promoterless puromycin-P2A-OFP DNA fragment by PCR amplification. The resulting donor PCR fragments were purified using PureLink™ PCR Purification Kit and then concentrated using a speed-vac to a final concentration of around 1 μg/μl. To examine the effect of donor dosage on HDR efficient, we kept the amount of Cas9 RNP constant and varied the amount of donor DNA. The Cas9 RNP and donor DNA were transfected into 293 FT via electroporation. At 48 hours post transfection, the cells were analyzed by fluorescence microscope. When the cells were transfected with Cas9 RNP alone or Cas9 protein with donor DNA, no OFP-positive cells were detected, whereas OFP-positive cells were observed when cells were transfected with Cas9 RNP and donor DNA. The percentages of OFP-positive cells were determined by flow cytometric analysis. Without selection, the percentage of OFP-positive cells increased from approximately 5% to 20% when the amount of donor DNA increased from 25 ng to 500 ng (FIG. 2A). The optimal amount of donor DNA was around 500 ng per reaction. On the other hand, after treatment of transfected cells with 1 μg/ml puromycin for 7 days, approximately 80% of cells were OFP-positive. There was no significant difference in the percentage of OFP-positive cells between different amounts of donor DNA (FIG. 2A). Next, we examined the effect of homology arm length on HDR efficiency. Various lengths of homology arms were added to the promoterless puromycin-P2A-OFP DNA fragment by PCR amplification. As depicted in FIG. 2B, when the homology arm length increased from 12 nt to 80 nt, the percentage of OFP-positive cells increased and then plateaued at around 35 nt.
Traditionally, a plasmid donor was used to incorporate large DNA molecules into the genome. […]

[2] = LRRK2, N-terminus, A549 clonal cells
[3] = Beta-actin, N-terminus, 293FT clonal cells

| Molecule | Efficiency at allele 1 HDR/Indel (LRRK2 genomic locus; [2]) [%] | Efficiency at allele 1 Precise HDR (LRRK2 genomic locus; [2]) [%] | Efficiency at allele 2 No HDR/Indel (LRRK2 genomic locus; LRRK2, N-terminus, A549 clonal cells, 7 nt deletion) [%] | integration efficiency (LRRK2 genomic locus; all 86 colonies contained at least one copy of the insert) [%] | Efficiency at allele 1 HDR/Indel (beta-actin locus; [3]) [%] | Efficiency at allele 2 No HDR/Indel (beta-actin locus; [3]) [%] | Efficiency at allele 2 Precise HDR (beta-actin locus; [3]) [%] | clonal cells with Indel formation / small mutations at the C-terminal junction (beta-actin locus; beta-actin locus, 293FT) [%] | clonal cells with mutations or extra sequences at the N-terminal junction (beta-actin locus; beta-actin locus, 293FT) [%] | clonal cells with precise HDR / correct junction at the C-terminal junction (beta-actin locus; beta-actin locus, 293FT) | clonal cells with precise HDR at the N-terminal junction (beta-actin locus; beta-actin locus, 293FT) | clones wild type (wt) (beta-actin locus; second allele) [%] | clones with more than 2 nt deletion (beta-actin locus; second allele (no insert)) | clones with one 'A' insertion at the Cas9 cleavage site (beta-actin locus; second allele (no insert)) | percentage of OFP-positive cells ([1]; after 1 μg/ml puromycin for 7 days) | % of functional Cells ([1]; determined by flow cytometry) [%^a] | homology arm length at which percentage of OFP-positive cells plateaued ([1]; homology arm length 12 nt to 80 nt) | optimal amount of donor DNA ([1]; without selection) | percentage of OFP-positive cells ([1]; without selection, 25 ng donor DNA, 48 hours post transfection) | percentage of OFP-positive cells ([1]; without selection, 500 ng donor DNA, 48 hours post transfection) [%] |
| --- | --- | --- | --- | --- | --- | --- | --- | --- | --- | --- | --- | --- | --- | --- | --- | --- | --- | --- | --- | --- |
| puromycin-P2A-EmGFP: donor DNA, 1.4 kb: promoterless puromycin-P2A-EmGFP fragment with approximately 35 nt homology arms to LRRK2 locus | 0 | 100 | 80 | 100 | – | – | – | – | – | – | – | – | – | – | – | – | – | – | – | – |
| B1 | – | – | – | – | 32 | 100 | 0 | 22 | 18 | approximately 78% | approximately 82% | 2 | 18% and 20% | approximately 80% | approximately 80% | 80 | around 35 nt | around 500 ng per reaction | approximately 5% | ~20 |
